Test results taken from publication doi:10.1101/2024.08.06.606614 (bioRxiv, 2024).
Each block holds one molecule with its values, some of them ahead of it.

Tests used:
[1] = molecular target: HYDIN (mouse (endogenous in mouse sperm)) (UniProt Q80W93); test: cryo-EM structure
cryo-EM structure = molecular target: the molecule itself; test: cryo-EM structure

stoichiometry N [1]: 3
Molecule: HYDIN, Q80W93 1-5154

B1: CFAP70 (natural protein)
chain: MDQTSSTTKIVHITVTNGYDLKGFKGDTPVTFVRAEFNQTVLGDSSKVTVSPEGTAKYNFTSNIDLSPDGGGALDDLAHKPLFLTVTEVLPKEKKQKDEKTLILGQAVVDLLPLLEGEESFETTVPLHPVPGSPLETPLPGSKQCSLDVKVFVAEPLLTPAQVSASNLLKVTLEAAYSVPESFIPVGPQQNYMVGLQVPSVGEKDYTMIFKNGNLKLGGEKEPVPRPKKWPIANILAPGASNIPDEFIVGGPYEEEEGELNHPEDREFRNQAECTKKRIVWDLESRCFLHPFAVASFQKRIADCRLWPVEITRVPLVVMPKAKPGKLEKIDDENQLSFHGVAYINMVPLLYPGVKKIRGAFHVYPYLDGTVFEKTKCLFSLFRDTGHHLVQNNKAGGLNSPLSKPLSKNLKEEKPGKDKDTEGRPRLGELQAPSIKSQSSDTPLESEAPLSHNLEGQQYIEAGTYIVLEIQLEKALVPKRMPEELARRVKEMIPPRPPLTRRTGGAQKAVSDYHTQIKSISRAILNEYYRMFGKQGPKLESDIDNETMEERKCQLNYELNCSGKYFAFKEQLKHAVVKIVREKYLKTTAFESQEELQTFISELYVFLVDQMHVALNQAVPDDVPSSTSTIQTSSEQLRLFAFEAEVNEKFEIAAMYYEERLVREPQNLENWLDYGAFCLLTEDNIKAQECFRKALSLNESHVDSLLLCGVLAILLENYEQAEIFFEDATCLEPTNVIAWTLLGLFYEIQNNDIRMEMAFHEAFKQLQARTLQTKLKSTVTIENMEEGVKVEPSFGPWGVVQESTTAIKTEGLSGMRPQSSHQLSPHTNMELHPQPQGPNTALSSLDEFLEESPKAQSESQEPMATGQPLEPSLVQRSSNALLKELTSKKDISKCQDSSAFSPPTQHVIAQPPVTIFMETIRFLMKVNAVQFVHRVLAHELLCPQGGPSCEYYLVLAQTHLLKKDFAKTEEYLQQAAQMDYLNPNVWGVKGHLYFLSGNHAEAKECYERTISFVVDASEMHFIFLRLGHIYLEEKEYENAKRTYMHACKRSPSCLTWLGLGIACYRLEELTEAEDALSEANALNNCNAEVWAYLALVCLKVGRQLEAEQAYKYTIKLKLKDQALLEEIHTVQEMVGFGNPSF
stoichiometry N (cryo-EM structure): 2

B2: SPAG16 (natural protein)
chain: MAAPSGVPPLRVLEELGIGLSPTGEVTEAVTSEGAYYLEQVTITETSEDECEYEEIPDDNFSIPEGEEDLEKAIHIIGEQARDIHILEQQTILPARNVMQEAIEDFLCNFLIKMGMTRTLDCFQAEWYELIQKKGSDFKGLGNVPDVYSQVMLLETENKNLKKELKHFKQAAEKAKEDLLRTQKERDFHRMHHKRIVQEKNKLIADLKGLKLHYASYEPTIRVLHEKHHALLKEKMLTSLERDRAVGKISGLQATLKNIDMGHIQVPVIKGSYESASITRESGDRAGHSCEKENSSEGPTQKSLREAREEVGYKSKLKNEKKDSEFPVDMQPDPNVTSCTENVSAAKFDYKLNNIFRLHELPVSCIVMHPCRDYLISCSEDRLWKMVGLPQGNVLLTGSGHTDWLSGCCFHPSGSKLATSSGDSTIKLWDLNKGECTLTLEGHNHAVWSCTWHSCGDFVASASLDMTSKIWDVNSERCRYTLYGHTDSVNSIEFFPFSNILLTASADKTLSVWDARTGKCEQSLYGHMHSVNDATFTPRGHIIASCDARGVTKLWDFRKLIPIVSIDVGPSSGNEVNFDQSGRVLAQASANGIIHLLDLKSGQIHKLVGHESEVHSVVFSHLGENLYSGGSDGTIRLWI
stoichiometry N (cryo-EM structure): 2

B3: GOT1L1 (putative aspartate aminotransferase) (natural protein)
chain: MTSLSVFRDVPTAQKLEGSLLKIYRQDGYPSKLFLAYKVCMTEEGHPWVSLVVHKTRLQIAEDPSLDYEYLPLVGLKSFIQSSLELLFGKHSEAIAEKRVGGVHIVGESGAFQLGAQFLKTWRKNVKIVCIVSCQKEQCGLIFQDMGFIVYEYSIWNASDLCSDPSMFVEVLQHIPVGSILVIGNITDCKFTQNQWTKLMSIIKSKQIFPFFDIPCQGLSTGDLEEDTKILQYFVSLGLEFFCSQSLSKNFGIYDEGVGILVVAALSNQHLLCVLSQLMDYVQALWGNPPATGARIITSILCNPALFGEWKQSLKGVVENMMLIKEKVKEKLRLLGTPGSWDHITRQSGTHGYLGLTYQQVEFLVKKKHIYLPKTSRINFTCINARNIDYITQSIHEAVMLTEG
stoichiometry N (cryo-EM structure): 2

B4: germ cell-less 1 (GMCL1) (natural protein)
chain: MGALSSRVLRPAGRTEQPEPTPGAGGAARRSDAGEDAGHSFCYCPGGRKRKRSSGTFCYCHPDSETDDDEDEGDEQQRLLNTPRRKKLKSTSKYIYQTLFLNGENSDIKICALGEEWSLHKIYLCQSGYFSSMFSGSWKESSMNIIELEIPDQNIDIEALQVAFGSLYRDDVLIKPSRVVAILAAACMLQLDGLIQQCGETMKETISVRTVCGYYTSAGTYGLDSVKKKCLEWLLNNLMTHQSVELFKELSINVMKQLIGSSNLFVMQVEMDVYTALKKWMFLQLVPSWNGSLKQLLTETDVWFSKWKKDFEGTTFLETEQGKPFAPVFRHLRLQYIISDLASARIIEQDSLVPSEWLAAVYKQQWLAMLRAEQDSEVGPQEINKEELEGNSMRCGRKLAKDGEYCWRWTGFNFGFDLLVTYTNRYIIFKRNTLNQPCSGSVSLQPRRSIAFRLRLASFDSSGKLICSRATGYQILTLEKDQEQVVMNLDSRLLIFPLYICCNFLYISPEKRTESNRHPENPGH
stoichiometry N (cryo-EM structure): 2
